T1: hASIC1a-eYFP on CHO-K1 cells (Homo sapiens, UniProt P78348)
T1 construct: overexpress the full-length hASIC1a (1-528 amino acids) protein fused with eYFP; expressed in transfected cells; host or cells: CHO-K1, transient
T1 sequence (P78348 1-528): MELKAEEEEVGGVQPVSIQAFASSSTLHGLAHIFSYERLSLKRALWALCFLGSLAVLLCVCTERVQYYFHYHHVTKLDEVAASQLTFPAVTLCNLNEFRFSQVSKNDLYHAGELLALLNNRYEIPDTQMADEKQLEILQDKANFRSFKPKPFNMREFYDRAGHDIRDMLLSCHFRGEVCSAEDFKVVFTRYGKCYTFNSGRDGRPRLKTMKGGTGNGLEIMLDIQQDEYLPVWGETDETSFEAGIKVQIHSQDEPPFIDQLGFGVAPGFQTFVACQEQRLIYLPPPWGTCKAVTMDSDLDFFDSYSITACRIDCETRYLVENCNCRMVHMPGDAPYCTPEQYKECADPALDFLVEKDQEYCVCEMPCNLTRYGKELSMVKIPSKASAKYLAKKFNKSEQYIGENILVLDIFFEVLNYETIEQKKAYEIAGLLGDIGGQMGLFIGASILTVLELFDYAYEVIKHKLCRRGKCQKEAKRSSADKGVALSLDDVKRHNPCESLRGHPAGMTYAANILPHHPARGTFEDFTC

T2: hASIC1a-eYFP (human, UniProt P78348 1-528)
T2 construct: whole, on cells; On CHO-K1 cells, stably (6H7) or transiently transfected; also called full-length hASIC1a (1-528 amino acids) fused with eYFP; CHO-K1/hASIC1a cells; not shown: C-terminal eYFP fusion
T2 sequence (looked up): T1 sequence (P78348 1-528)

B1: ASC06 (scFv, V domains shown)
VH: QVQLQQSGGGLVQPGGSLRLSCAASGFTFSSYAMSWVRQAPGKGLEWVSAISGSGGSTYYADSVKGRFTISRDNSKNTLYLQMNSLRAEDTAVYYCAKDSFYGYSKGDWGQGTLVTVSS
VL: QSALTQPASVSGSPGQSITISCTGTSSDVGAYNYVSWYQQQPGKAPKLMIYGVSNRPSGVSNRFSGSKSGNAASLTISGLQAEDEADYYCSSYTSSSTYVFGTGTKLTVLG
B2: ASC05 (scFv, V domains shown)
VH: QVQLVESGAEVKKPGASVRVSCKASGYSFTNYYMHWVRQAPGQGLEWMGIISPSGRSTSFAQKFQGRVTMTRDTSTSTVYMHLSSLRSDDTAVYYCARGAWSTDAFDIWGQGTTVTVSS
VL: QSALTQPASVSGSPGQSITISCTGTSSDVGSYNLVSWYQQHPGKAPKLMIYEGSKRPSGVSNRFSGSKSGNTASLTISGLQAEDEAEYHCSSFTGKGYVFGTGTKLTVLG
notes: also called ASC05 scFv; ASC05 (scFv format)
B3: ASC01 (scFv, V domains shown)
VH: QVQLVETGPRLVKPSQTLSLTCTVSGGSINSGGYYWGWIRQHSGKGLEWIGYIYPRGSSYYNPSLRSRVTISADTSRNNFSLKLTSVTAADTAVYYCARVGYTGAFDIWGQGTLVTVSS
VL: QAVLTQPSSVSAAPGQKVTISCSGGNSNIGNNYVSWYQQLPGTAPKLLIYDNNKRPSGIPDRFSGSKSGTAATLGITGLQTGDEADYYCGTWDSSLSAGVFGEGTQLTVLG
notes: also called ASC01 scFv; ASC01 (scFv format)
B4: ASC06: anti-ASIC1a scFv antibody, VH SEQ ID NO: 52 and VL SEQ ID NO: 57 (antibody, V domains shown)
VH: B1 VH
VL: B1 VL
modifications: scFv linker; Amino acid sequence of ASC06 VH; Amino acid sequence of ASC06 VL
B5: ASC02: anti-ASIC1a scFv antibody, VH SEQ ID NO: 12 and VL SEQ ID NO: 17 (antibody, V domains shown)
VH: QVQLVQSGAEVKKPGASMKVSCTTSGYTVTGYYIHWLRQAPGQGFEWMGWINPNLGVTNYAQKFQGRVSMTRDPSIKTAYLELSGLRSDDTAMYYCARASTGGIFYDYWGQGTLVTVSS
VL: NFMLTQPHSMSESPGKTVTISCTRSSGNIASNYVQWYQQRPGSSPTTVIYDDNQRPSGVPDRFSGSIDSISNSASLTISGLKTEDEADYYCQSYDSSSVIFGGGTKLTVLG
modifications: scFv linker; Amino acid sequence of ASC02 VH; Amino acid sequence of ASC02 VL
B6: ASC04: anti-ASIC1a scFv antibody, VH SEQ ID NO: 32 and VL SEQ ID NO: 37 (antibody, V domains shown)
VH: QVQLVQSGAEVKKPGSSVKVSCKASGGTFSTYAINWVRQAPGQGLEWMGWMNPNSGNTGYAQKFQGRVTMTRNTSISTAYMELSSLRSEDTAVYYCARYSYGMDVWGQGTTVTVSS
VL: QAVLTQPSSLSASPGASVSLTCTLRSGINVGAYRIYWYQQKPGSPPQFLLRYKSDSDKQQGSGVPSRFSGSRDASANAGILLISGLRSEDEADYYCAIWHSSAWVFGGGTKLTVLG
modifications: scFv linker; Amino acid sequence of ASC04 VH; Amino acid sequence of ASC04 VL
B7: ASC03: anti-ASIC1a scFv antibody, VH SEQ ID NO: 22 and VL SEQ ID NO: 27 (antibody, V domains shown)
VH: QVQLVESGAEVKKPGSSVKVSCKASGGNFRKYSISWVRQAPGQGLEWMGWISAYNGNTNYAQKLQGRVTMTTDTSTSTAYMELRSLRSDDTAVYYCARDFDPYYDAFDIWGQGTTVTVSS
VL: QSALTQPASVSGSPGQSITISCTGTSSDVGAYNYVSWYQQHPGKAPKLMIYDVSNRLSGVSNRFSGSKSGNRASLTISGLQAEDEADYYCSSYRSGNSLAFGGGTKLTVLG
modifications: scFv linker; Amino acid sequence of ASC03 VH; Amino acid sequence of ASC03 VL
B8: ASC05: anti-ASIC1a scFv antibody, VH SEQ ID NO: 42 and VL SEQ ID NO: 47 (antibody, V domains shown)
VH: B2 VH
VL: QSALTQPASVSGSPGQSITISCTGTSSDVGSYNLVSWYQQHPGKAPKLMIYEGSKRPSGVSNRFSGSKSGNTASLTISGLQAEDEAEYHCSSFTGKGYVFGTGTKLTVLGGLG
modifications: scFv linker; Amino acid sequence of ASC05 VH; Amino acid sequence of ASC05 VL
B9: ASC01: anti-ASIC1a scFv antibody, VH SEQ ID NO: 2 and VL SEQ ID NO: 7 (antibody, V domains shown)
VH: B3 VH
VL: B3 VL
modifications: scFv linker; Amino acid sequence of ASC01 VH; Amino acid sequence of ASC01 VL

These molecules were tested against truncated hASIC1a (amino acids 13-464) (human) (UniProt P78348) (assay: Octet, scFv format, ΔhASIC1a nanodiscs). Details: not given.

Kd [nM]	Molecule
21.7	B1
137	B2
45.1	B3

What follows are molecules tested against truncated hASIC1a (amino acids 13-464) (human) (UniProt P78348) (assay: Octet, scFv format at 500 nM, ΔhASIC1a nanodiscs). Details: not given.

Response	Molecule
0.571	B1
0.502	B2
0.431	B3

These molecules were tested against T1, hASIC1a-eYFP on CHO-K1 cells (assay: Immunocytochemistry on CHO-K1/hASIC1a cells). Details: ICC, confocal.
Type: cell-based
Description: Cell Membrane Colocalization Studies Using Immunocytochemistry (ICC). Cells (CHO-K1) were seeded onto the poly-D-lysine-coated glass bottom 24-well plates at a concentration of 2×10^5 cells per mL. After 12 h of cultivation, the CHO-K1 cells were transfected with ASIC plasmids by Lipofectin 3000 reagent. Twenty-four hours after transfection, the cells were fixed in 4% paraformaldehyde and incubated for 30 min in a blocking solution (5% goat serum in PBS). The resulting cells were incubated with […] ASC06-IgG1 at 4° C. overnight followed by three PBS washes for 5 min each and incubation with the Alexa555-conjugated goat anti-human secondary antibody (Life Technology). After three additional PBS washes for 5 min each, the nuclei of the cells were stained with DAPI (#10236276001; Roche). The ICC analysis was performed on a laser scanning confocal microscopy (ZEISS LSM710) with a 63×N.A. 1.4 objective at 25° C. Images were collected on a 1,024×1,024-pixel EM-CCD camera. Data acquisition and analyses were performed with the ZEN 2012 professional software.
To understand whether ASC01-ASC06 specifically bind to the ASIC1a protein expressed on cell surface, the binding of the antibodies to CHO-K1/hASIC1a cells was evaluated using immunocytochemistry. The CHO-K1/hASIC1a cells overexpress the full-length hASIC1a (1-528 amino acids) protein fused with eYFP. […] It is likely that ASC01-ASC05 recognize specific ASIC1a confirmations or subpopulations.
The ASC06 antibody was converted into a full length IgG1 form (ASC06-IgG1) for further study. […] The binding of ASC06-IgG1 to CHO-K1/hASIC1a cells was evaluated using immunocytochemistry, in comparison with the ASC06 (scFv format) antibody.

membrane co-localization with hASIC1a	Molecule
more co-localization with hASIC1a-eYFP	B4

Same assay, conditions: ICC, confocal; compared to ASC01 and ASC05

localization to plasma membranes of cells expressing hASIC1a-eYFP	Molecule
localized more to the plasma membranes	B5
localized more to the plasma membranes	B4
localized more to the plasma membranes	B6
localized more to the plasma membranes	B7

The molecules below were run against T2, hASIC1a-eYFP (assay: immunocytochemistry, confocal microscopy, CHO-K1 cells expressing hASIC1a-eYFP). Details: not given.

binding result	Molecule
binds	B2
binds	B3

The molecules below were run against T3, ΔhASIC1a-nanodiscs (Homo sapiens, UniProt P78348) (assay: Binding affinities of scFv antibodies to ΔhASIC1a-nanodiscs, Octet system). Details: scFv format; Conc. 500 nM; Octet system.
T3 construct: A truncated ASIC1a (amino acids 13-464; ΔhASIC1a) was overexpressed and purified; made in house; host or cells: HEK293F (BacMam baculovirus)
Text: Nanodisc Assembly of hASIC1a Channel. To mimic the lipid bilayer environment of cellular membranes, the purified ΔhASIC1a protein was incorporated into a lipid nanodisc by mixing the ΔhASIC1a protein with the membrane scaffold protein (MSP). and 1,2-dimyristoyl-sn-glycero-3-phosphocholine (DMPC) at a molar ratio of 3:2:65. The associated detergents were removed by gentle agitation with the Bio-Beads SM2 [Bio-Beads:DDM=10:1 (wt/wt); Bio-Rad]overnight. The ΔhASIC1a-embedded nanodiscs were separated from the unassembled nanodisc using the Flag peptide-specific magnetic beads. D'Antona et al., Biochemistry 53:127-134 (2014). The desired ΔhASIC1a nanodisc assembly was further purified and collected using a Superose 6 column (GE Healthcare) in a buffer containing 20 mM Tris, pH 7.5, and 150 mM NaCl. The empty nanodiscs were packaged without the addition of ΔhASIC1a. The composition of the assembled ΔhASIC1a nanodiscs was analyzed by SDS-PAGE, EM, and dynamic light scattering (FIGS. 9A-C, 12A, 12B)
The binding ability of ASC01-ASC06 antibodies in scFv format to ΔhASIC1a-nanodiscs, in comparison to the empty nanodiscs, was evaluated using ELISA. […] Affinities of the antibodies were then measured.

T3 sequence (P02647 68-267 partner limits assumed, one chain of several): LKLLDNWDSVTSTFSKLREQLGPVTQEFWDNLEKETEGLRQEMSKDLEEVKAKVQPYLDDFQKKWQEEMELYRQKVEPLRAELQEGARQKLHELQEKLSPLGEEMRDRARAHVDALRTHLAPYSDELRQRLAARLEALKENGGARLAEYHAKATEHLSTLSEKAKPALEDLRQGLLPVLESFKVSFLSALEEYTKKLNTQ

Response	Molecule
0.2888	B5
0.5712	B4
0.995	B6
0.5016	B8
0.2693	B7
0.431	B9

Same assay, conditions: scFv format; Octet system

Kd [nM]	Molecule
262	B5
21.7	B4
20.8	B6
137	B8
259	B7
45.1	B9

Same assay, conditions: scFv format; among ASC01-ASC06

affinities for ΔhASIC1a nanodiscs, comparison in words	Molecule
strongest affinities	B4
strongest affinities	B6
